The values below come from PMC9919667.

In experiment [1] the target is asialofetuin (ASF) (bovine (from fetal calf serum)) (UniProt P12763). Description: ELISA; ASF (5 µg/mL, 200 µL/well) adsorbed on Maxisorp plates; IMAC-purified galectin 0-30 µM in PBS, 1 h; peroxidase-conjugated anti-His6 antibody, TMB; apparent KD, one-site saturation fit; binding efficiency = Bmax/KD. (An ELISA detects its analyte on a solid surface through an enzyme-linked reagent.)

In experiment [2] the target is laminin (from Engelbreth-Holm-Swarm sarcoma) (not stated (Engelbreth-Holm-Swarm sarcoma; detected with an anti-mouse-laminin antibody)). Description: ELISA; laminin, fibronectin or collagen IV (5 µg/mL, 100 µL/well) adsorbed on Maxisorp plates; galectin 0-10 µM, 1 h; peroxidase-conjugated anti-His6 antibody, TMB; apparent KD, one-site saturation fit.
The target of experiment [3] is fibronectin (from human plasma) (human) (UniProt P02751). The description is as above.
Experiment [4] concerns the target collagen IV (from human placenta) (human). The experiment is described as above.
For experiment [5], the target named is asialofetuin (ASF) (bovine (from fetal calf serum)) (UniProt P12763). Description: affinity chromatography on glycoprotein-Sepharose column; ASF or fetuin coupled to CNBr-activated Sepharose 4 Fast Flow (1 mL column); 0.2 µmol of galectin IMAC eluate applied, 15 min incubation, PBS pH 7.5, washed with 10 column volumes, eluted with a 0-0.3 M lactose gradient; eluted amount by Bradford assay; repeated three times.

The target in experiment [6] is fetuin (bovine (from fetal calf serum)) (UniProt P12763). Described as above.
The target in experiment [7] is HGal-3 (His6-Gal-3) (human) (UniProt P17931). Description: ELISA; crosslinking assay: ASF adsorbed on Maxisorp plates, saturating galectin (50 µM Gal-1C2S, 25 µM Gal-3, 40 µM Gal-8N) bound for 1 h at room temperature, then laminin, fibronectin or collagen IV 0-50 µM for 1 h; detected with anti-ECM-protein antibodies and peroxidase-conjugated secondary antibodies; apparent KD, one-site saturation fit.

Experiment [8] addresses HSYGal-3 (His6-SNAP-yellow fluorescent protein-Gal-3) (human) (UniProt P17931). Described as above.
Experiment [9] concerns the target HGal-8N (His6-Gal-8N, N-terminal domain of galectin-8) (human) (UniProt O00214). The experiment is described as above.
In experiment [10] the target is HSeGFPGal-8N (His6-SNAP-eGFP-Gal-8N) (human) (UniProt O00214). The description is as above.
In experiment [11] the target is HGal-1C2S (His6-Gal-1 C2S) (human) (UniProt P09382). The description is as above.
The target of experiment [12] is HSDsRedMGal-1C2S (His6-SNAP-DsRedM-Gal-1C2S) (human) (UniProt P09382). The experiment is described as above.

Sequence of asialofetuin (ASF) (bovine (from fetal calf serum)) (P12763 19-359): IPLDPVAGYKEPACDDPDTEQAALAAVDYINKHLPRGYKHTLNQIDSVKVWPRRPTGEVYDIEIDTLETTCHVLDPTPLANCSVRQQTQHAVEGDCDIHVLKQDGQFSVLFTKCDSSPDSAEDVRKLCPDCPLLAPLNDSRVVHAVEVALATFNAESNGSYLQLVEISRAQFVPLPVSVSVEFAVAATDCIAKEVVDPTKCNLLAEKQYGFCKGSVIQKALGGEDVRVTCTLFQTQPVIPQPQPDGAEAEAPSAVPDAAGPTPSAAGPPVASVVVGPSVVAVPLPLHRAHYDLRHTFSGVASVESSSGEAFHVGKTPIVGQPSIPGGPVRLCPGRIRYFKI
Sequence of HGal-8N (His6-Gal-8N, N-terminal domain of galectin-8) (O00214 1-160): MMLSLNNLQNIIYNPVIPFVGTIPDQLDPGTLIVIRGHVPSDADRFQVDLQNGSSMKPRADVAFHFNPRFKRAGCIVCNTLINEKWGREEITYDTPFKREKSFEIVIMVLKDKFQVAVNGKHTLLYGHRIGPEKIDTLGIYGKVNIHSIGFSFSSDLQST
Sequence of HSeGFPGal-8N (His6-SNAP-eGFP-Gal-8N) (O00214 1-160): as above
Sequence of collagen IV (from human placenta) (human) (P02462 173-1669, chain 1 of 2): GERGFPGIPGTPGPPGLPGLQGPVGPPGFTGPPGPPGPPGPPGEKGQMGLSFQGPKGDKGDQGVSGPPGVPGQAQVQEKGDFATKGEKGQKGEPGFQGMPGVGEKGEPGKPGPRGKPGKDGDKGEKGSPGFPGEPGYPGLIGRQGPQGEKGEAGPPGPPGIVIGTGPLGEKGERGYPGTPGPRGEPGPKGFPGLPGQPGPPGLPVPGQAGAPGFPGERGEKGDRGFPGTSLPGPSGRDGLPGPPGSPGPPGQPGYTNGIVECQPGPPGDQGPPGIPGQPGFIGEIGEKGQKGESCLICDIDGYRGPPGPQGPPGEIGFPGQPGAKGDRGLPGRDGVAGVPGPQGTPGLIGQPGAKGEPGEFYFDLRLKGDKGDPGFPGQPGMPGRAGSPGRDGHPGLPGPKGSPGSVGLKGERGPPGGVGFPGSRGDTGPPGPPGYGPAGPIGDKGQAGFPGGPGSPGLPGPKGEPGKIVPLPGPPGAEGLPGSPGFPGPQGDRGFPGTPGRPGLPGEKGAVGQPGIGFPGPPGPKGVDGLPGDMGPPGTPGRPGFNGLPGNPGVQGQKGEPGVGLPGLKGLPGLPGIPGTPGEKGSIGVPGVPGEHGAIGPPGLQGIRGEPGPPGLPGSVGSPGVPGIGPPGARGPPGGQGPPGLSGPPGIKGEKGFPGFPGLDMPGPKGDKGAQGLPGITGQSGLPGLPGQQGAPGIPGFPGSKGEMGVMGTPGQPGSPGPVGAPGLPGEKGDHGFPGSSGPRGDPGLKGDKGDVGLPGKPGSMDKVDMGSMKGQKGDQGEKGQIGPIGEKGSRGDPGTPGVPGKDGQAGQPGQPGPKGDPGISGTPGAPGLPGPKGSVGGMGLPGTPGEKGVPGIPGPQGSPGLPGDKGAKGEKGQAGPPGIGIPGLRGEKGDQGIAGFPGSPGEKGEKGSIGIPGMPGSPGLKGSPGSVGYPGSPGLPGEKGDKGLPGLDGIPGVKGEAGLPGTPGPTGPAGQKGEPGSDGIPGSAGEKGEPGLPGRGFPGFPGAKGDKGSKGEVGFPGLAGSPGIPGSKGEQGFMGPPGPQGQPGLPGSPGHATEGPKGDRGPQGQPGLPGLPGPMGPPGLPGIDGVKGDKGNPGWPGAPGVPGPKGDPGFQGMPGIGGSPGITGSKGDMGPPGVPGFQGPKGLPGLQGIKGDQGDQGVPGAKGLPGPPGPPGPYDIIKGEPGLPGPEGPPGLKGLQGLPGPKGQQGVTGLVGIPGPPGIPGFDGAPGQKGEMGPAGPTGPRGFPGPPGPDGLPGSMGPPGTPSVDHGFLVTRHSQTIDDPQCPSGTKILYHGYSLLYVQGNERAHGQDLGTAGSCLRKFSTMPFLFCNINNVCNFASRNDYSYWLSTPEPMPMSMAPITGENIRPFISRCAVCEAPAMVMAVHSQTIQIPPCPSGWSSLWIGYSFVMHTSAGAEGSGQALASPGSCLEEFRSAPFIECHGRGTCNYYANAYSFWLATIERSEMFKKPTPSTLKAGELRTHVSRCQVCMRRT
Sequence of collagen IV (from human placenta) (human) (P08572 184-1712, chain 2 of 2, further chain): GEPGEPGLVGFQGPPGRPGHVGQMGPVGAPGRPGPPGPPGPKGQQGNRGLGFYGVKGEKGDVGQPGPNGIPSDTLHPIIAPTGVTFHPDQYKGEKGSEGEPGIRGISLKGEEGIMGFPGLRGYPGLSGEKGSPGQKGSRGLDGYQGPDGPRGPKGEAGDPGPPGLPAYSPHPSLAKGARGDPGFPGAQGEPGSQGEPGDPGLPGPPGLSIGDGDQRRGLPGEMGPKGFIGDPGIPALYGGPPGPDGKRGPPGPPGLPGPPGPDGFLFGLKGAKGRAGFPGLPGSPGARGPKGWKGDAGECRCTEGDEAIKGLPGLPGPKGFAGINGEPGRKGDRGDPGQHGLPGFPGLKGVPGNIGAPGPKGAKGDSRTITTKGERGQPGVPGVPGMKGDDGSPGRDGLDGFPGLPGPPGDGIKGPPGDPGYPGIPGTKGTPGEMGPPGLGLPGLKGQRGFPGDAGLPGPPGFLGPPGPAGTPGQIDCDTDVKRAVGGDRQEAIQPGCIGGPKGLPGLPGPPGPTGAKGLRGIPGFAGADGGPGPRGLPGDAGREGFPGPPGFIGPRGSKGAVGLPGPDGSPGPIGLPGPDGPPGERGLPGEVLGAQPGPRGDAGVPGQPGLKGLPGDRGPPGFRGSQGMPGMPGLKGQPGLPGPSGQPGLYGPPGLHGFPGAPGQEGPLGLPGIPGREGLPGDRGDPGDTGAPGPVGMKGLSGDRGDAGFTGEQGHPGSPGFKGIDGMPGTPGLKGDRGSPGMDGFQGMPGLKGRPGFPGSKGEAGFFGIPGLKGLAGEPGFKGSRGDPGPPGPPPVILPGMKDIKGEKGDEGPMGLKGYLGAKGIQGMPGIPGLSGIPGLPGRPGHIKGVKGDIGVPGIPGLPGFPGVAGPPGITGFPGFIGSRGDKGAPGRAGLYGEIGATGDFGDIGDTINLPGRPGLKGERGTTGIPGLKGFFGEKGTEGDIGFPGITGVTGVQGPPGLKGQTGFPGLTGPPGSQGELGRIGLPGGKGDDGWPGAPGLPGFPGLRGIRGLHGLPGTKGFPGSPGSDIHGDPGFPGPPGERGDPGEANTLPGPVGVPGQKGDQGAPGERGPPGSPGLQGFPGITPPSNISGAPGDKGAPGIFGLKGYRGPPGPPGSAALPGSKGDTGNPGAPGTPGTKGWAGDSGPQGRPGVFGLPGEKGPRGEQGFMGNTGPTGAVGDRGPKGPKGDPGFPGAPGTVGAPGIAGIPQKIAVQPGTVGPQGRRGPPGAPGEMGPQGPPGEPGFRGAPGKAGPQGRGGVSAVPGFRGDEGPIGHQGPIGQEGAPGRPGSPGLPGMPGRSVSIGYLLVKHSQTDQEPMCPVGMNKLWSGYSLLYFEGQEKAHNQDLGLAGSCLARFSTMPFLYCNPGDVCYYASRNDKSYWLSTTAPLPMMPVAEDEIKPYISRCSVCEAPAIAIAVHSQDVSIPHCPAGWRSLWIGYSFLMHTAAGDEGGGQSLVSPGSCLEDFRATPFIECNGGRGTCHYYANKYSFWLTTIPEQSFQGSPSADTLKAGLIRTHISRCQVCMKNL
Sequence of HSeGFPGal-8N (His6-SNAP-eGFP-Gal-8N) (human) (O00214 1-160): as the sequence (O00214 1-160) above
Sequence of HGal-8N (His6-Gal-8N, N-terminal domain of galectin-8) (human) (O00214 1-160): as above
Sequence of fetuin (bovine (from fetal calf serum)) (P12763 19-359): as the sequence (P12763 19-359) above

As for “HDsRedMGal-1C2S (His6-DsRedM-Gal-1C2S, without SNAP-tag) (from UniProt P09382 1-135) (natural protein)”, in experiment [1], the Kd turned out to be 8800 nM and the apparent binding efficiency (Bmax/KD) is 0.1 µM⁻¹.
As to “HGal-1C2S (His6-Gal-1 C2S) (from UniProt P09382 1-135) (natural protein)”, the Kd turned out to be 420 nM in [2], 1970 nM in experiment [3], 1340 nM in [4] and 500 nM in experiment [1]. In [1], the apparent binding efficiency (Bmax/KD) amounted to 1.6 µM⁻¹. Besides, the percent of applied galectin bound and eluted in experiment [5] was found to be 70%; in experiment [6], 30%.
Regarding “HGal-3 (His6-Gal-3) (from UniProt P17931 1-250) (natural protein)”, the results for the Kd in experiment [2] and in [3] were 130 nM and 430 nM, respectively.
For the substance “HGal-8C (His6-Gal-8C, C-terminal domain of galectin-8) (from UniProt O00214 182-317) (domain or fragment)”, the percent of applied galectin bound and eluted in experiment [5] was found to be 3%.
On to “HGal-8N (His6-Gal-8N, N-terminal domain of galectin-8) (from UniProt O00214 1-160) (domain or fragment)”, for which the Kd came to 180 nM in experiment [2] and 520 nM in experiment [3].
Take “HSDsRedMGal-1C2S (His6-SNAP-DsRedM-Gal-1C2S) (from UniProt P09382 1-135) (natural protein)”: the Kd stood at 110 nM in experiment [2], 110 nM in experiment [3], 140 nM in experiment [4] and 600 nM in experiment [1]. The apparent binding efficiency (Bmax/KD) in [1] is 1.4 µM⁻¹. The same substance yielded a percent of applied galectin bound and eluted in experiment [5] of 4%.
In the case of “HSGal-1C2S (His6-SNAP-Gal-1C2S, without fluorescent protein) (from UniProt P09382 1-135) (natural protein)”, in experiment [1], the Kd turned out to be 800 nM and the apparent binding efficiency (Bmax/KD) was 1.1 µM⁻¹.
Turning to “HSYGal-3 (His6-SNAP-yellow fluorescent protein-Gal-3) (from UniProt P17931 1-250) (natural protein)”, the Kd in experiment [2] was 70 nM; in experiment [3], 110 nM.
For the substance “HSeGFPGal-8N (His6-SNAP-eGFP-Gal-8N) (from UniProt O00214 1-160) (domain or fragment)”, the Kd in experiment [2] was found to be 40 nM; in experiment [3] it was 60 nM.
“fibronectin (from human plasma) (from UniProt P02751 32-2477) (natural protein)”: the Kd in experiment [7] came out at 5100 nM; in experiment [8], 10 µM.
“laminin (from Engelbreth-Holm-Swarm sarcoma) (complex)”: the Kd in [9] worked out at 69.5 µM; in [10], 270 nM; in [11] it was 380 nM; in [7], 270 nM; in [8] it was 0.45 µM; in experiment [12], 370 nM.
